Results published in patent publication US20260231968A1, “AN ECO-FRIENDLY, SUSTAINABLE FOOD PRESERVATIVE” (priority 2023, published 2026).

Legend:
Aspergillus flavus = experiment: Chickpea paste assay inoculated with A. flavus; type: cell-based; conditions: for fungal load count on YAG-agarose plates: 30° C, after 48 and 72 hours
Method: Sterilized and frozen chickpeas (100 g) were boiled for 15 minutes and ground using a blender. The ground chickpeas were treated with chloramphenicol (34 μg/μl) and tetracycline (12.5 μg/μl) to prevent microbial growth. The chickpeas were then inoculated with 500 spores/g of A. flavus and divided into groups of 7 g, and each group was treated with 7 ml of PBS×1 with different His-psoriasin concentrations to reach final concentrations of 0 μM, 50 μM, 100 μM, and 200 μM. The different groups were then divided into 1 g of treated and inoculated chickpeas in 6 well plates (1 g/well) and incubated in a humidified incubator at 30° C. Every day, 1 g of treated chickpeas from each group was diluted in PBS×1 and seeded on YAG-agarose plates to count colonies and calculate the fungi development through time.
For the visual evaluation of the treated/non-treated and inoculated/not-inoculated samples, the samples were prepared in the same way, but incubated at room temperatures and divided into groups of 3 g each.
Chickpeas were boiled and ground and then treated with a combination of chloramphenicol and tetracycline antibiotics (to eliminate bacterial growth) at final concentrations of 34 μg/μl and 12.5 μg/μl, respectively. Samples were divided into ‘inoculated with Aspergillus flavus’ and ‘non-inoculated’, and ‘treated’ and ‘non-treated’ with 180 μM His-psoriasin. All samples were placed in 20° C.
In a follow-up experiment, inoculated chickpea paste samples were treated with three different recombinant His-psoriasin concentrations, namely 50 μM, 100 μM, and 200 μM, and incubated at 30° C. Fungal load count was performed on YAG-agarose plates with antibiotics (chloramphenicol (34 μg/μl) and tetracycline (12.5 μg/μl)) to prevent bacterial growth after 48 and 72 hours.

3T3 cells = experiment: Cell viability assay based on luminescence (cell-titer kit); conditions: 2-74 μM, 24 h
Method: To assess any potential deleterious effects of psoriasin, such as cytotoxicity, a cell viability assay was performed based on luminescence, in which decreased luminescence is indicative of reduced cell viability. Various concentrations of psoriasin ranging from 2-74 μM, were tested on 3T3 cells. Approximately 5000 cells were plated in each well of a 96 well-plate and following overnight incubation, psoriasin was added in the indicated concentration within the medium to the cells (performed in triplicate). Luminescence values were recorded after an additional 24 h using the cell-titer kit (Promega Ltd.) in a BioTek Synergy plate reader.

E. coli = experiment: Thermal stability of psoriasin, E. coli standard growth assay; type: cell-based
Method: In another study, psoriasin stock (36 mg/mL in 1×PBS) was exposed to temperatures of 70° C., 80° C., and 90° C. for periods of 15, 30, and 60 minutes. After thermal exposure, the activity of the protein was assessed against E. coli in a standard growth assay with 0.4%, 0.2% or 0.1% psoriasin.

Candida albicans = experiment: Microbial Growth Inhibition Test, broth microdilution optical method; type: cell-based; conditions: RPMI-MOPS
Method: The IC90 of psoriasin for several microorganisms was determined by Microbial Growth Inhibition Tests. The tests were performed using the Broth Microdilution Optical Method based on standardized protocols M27 (yeasts) and M38 (filamentous fungi) of the Clinical and Laboratory Standards Institute. […] MOPS, LB (Luria-Bertani), and TSB ([…]) medium types were used, depending on the species being tested. The absorbance was calibrated to each species, and was measured between 450 nm to 650 nm.

[1] = Thermal stability of psoriasin, microbial growth inhibition test (CLSI M27/M38); type: cell-based; conditions: stock 36 mg/mL in 1×PBS, 4° C to 84° C for one hour
Method: In order to assess its thermal stability, psoriasin stock (36 mg/mL in 1×PBS) was subjected to various temperatures ranging from 4° C. to 84° C. for one hour. The thermally treated psoriasin was subsequently used in a microbial growth inhibition test based on standardized protocols M27 (yeasts) and M38 (filamentous fungi) of the Clinical and Laboratory Standards Institute.

[2] = tested on: microbial load of plant-based ground meat (soy protein); experiment: Microbial load of plant-based ground meat (soy protein) with psoriasin and/or nisin; type: cell-based; conditions: 0.65% w/w His-psoriasin; 1.5 mg nisin; 5 g soy protein in 7.5 ml PBS
Method: The ability of psoriasin to inhibit bacterial and fungal growth, with and without nisin was evaluated. Commercial plant-based ground meat (soy protein) was divided into 4 groups, each containing 5 grams of soy protein. The sample designated as “non-treated” contained 5 g of soy protein in 7.5 ml of PBS×1. The sample designated as “psoriasin” contained 5 g of soy protein in 7.5 ml of PBS×1 with 0.65% w/w of His-psoriasin. The sample designated as “nisin” contained 5 g of soy protein in 7.5 ml PBS×1 with 1.5 mg of nisin. The combined treatment group (“psoriasin+nisin”) contained 5 g of soy protein with both his-psoriasin and nisin at the same concentrations. The samples were incubated in […], and the microbial load was evaluated by seeding the different test groups on LB-agarose plates containing no antibiotics or on YAG-agarose plates with the antibiotics.

[3] = tested on: microbial growth in bread/rolls; experiment: Microbial growth in baked bread/rolls stored at room temperature; type: cell-based; conditions: 0.3% psoriasin admixed with dough before baking, after 10 days at room temperature
Method: Bread or roll dough prepared with 150 ml PBS, 0.3% psoriasin, (1.5 g protein in 150 ml DDW) or 0.3% calcium propionate (1.5 g calcium propionate in 150 ml DDW) was baked in a bread maker according to the manufacturer protocol using the following recipe: 180 ml water (or 150 ml PBS+30 ml water), 1 teaspoon of salt, 2 spoons of sugar, 2 spoons of oil, 300 g of flour, and 1 teaspoon of yeast. Following baking, the bread was sliced, each slice/roll was weighed and kept in a separate small smasher bag until analysis.
Bread/rolls were stored at room temperature. Each day, a roll/slice of bread from each group was mixed with autoclaved 1×PBS at a weight ratio of 1:10 to the weighted piece of bread in the bag. The bread was then smashed in a smasher at normal speed for 120 seconds. 10 mL from the smashed bread was removed, vortexed, and diluted with autoclaved 1×PBS as necessary. Samples were plated on both PDA and LB plates and incubated at 30° C. and 37° C., respectively. All samples were performed in duplicate.

C. albicans = experiment: Anti-fungal activity after lyophilization or oven drying; type: cell-based, Candida albicans
Method: The activity of psoriasin was assessed following lyophilization and oven drying. […] In particular, psoriasin was lyophilized and then tested for antimicrobial activity against C. albicans at concentrations of 0.5, 0.25, and 0.125 μM compared with psoriasin that had not been lyophilized.
In another experiment, psoriasin was oven-dried at 50° C. for 24 hours. Subsequently, psoriasin was tested for antimicrobial activity against C. albicans at concentrations of 0.5, 0.25, 0.125, 0.0625 μM compared with psoriasin that was not dried.

B1: psoriasin: Recombinant human psoriasin (S100a7) containing a histidine tag, amino acid sequence SEQ ID NO: 11, expression vector pET-28a (protein, listed as Homo sapiens)
chain: MSNTQAERSIIGMIDMFHKYTRRDDKIEKPSLLTMMKENFPNFLSACDKKGTNYLADVFEKKDKNEDKKIDFSEFLSLLGDIATDYHKQSHGAAPCSGGSQ
Aspergillus flavus; 180 μM, 20° C, after 10 days
  signs of fungal growth in chickpea paste (visual): did not show any signs of fungal growth
Aspergillus flavus; 200 μM
  fungal load count on YAG-agarose plates: No fungi had developed
Aspergillus flavus; lower concentrations (50 μM, 100 μM)
  fungal load count on YAG-agarose plates: reduced growth was observed
3T3 cells
  cell viability (luminescence): No change in luminescence was detected
E. coli; 70° C for 15, 30 and 60 minutes, all concentrations
  antimicrobial activity against E. coli after thermal exposure: retained full antimicrobial activity
E. coli; 70° C, 80° C, 90° C for 15 minutes, 0.4%, 0.2% or 0.1% psoriasin
  ability to inhibit E. coli after thermal exposure: maintained its ability to inhibit the growth of E. coli
E. coli; 80° C and 90° C for 1 hour
  antimicrobial activity against E. coli after thermal exposure: inhibited the growth of E. coli, though to a lesser extent
Candida albicans
  IC90: 500 nM
[1]
  inhibitory properties after thermal treatment: maintained its inhibitory properties
[2]
  total microbial count on LB-agarose plates containing no antibiotics: inhibited microbial growth
  total yeast/mold count on YAG plates with antibiotics: inhibited fungal/yeast growth
[3]
  microbial growth in rolls: no microbial growth was detected
C. albicans; 0.5, 0.25 and 0.125 μM
  activity against C. albicans after lyophilization vs not lyophilized: showed the same activity
C. albicans; oven-dried at 50° C for 24 hours, 0.5, 0.25, 0.125, 0.0625 μM
  activity against C. albicans after oven drying vs not dried: showed the same activity
